Blank lines part the entries; values can stand above or below the binder they belong to.
B1: KAP3 (separately purified) (natural protein, mouse, UniProt P70188-1 1-793, looked up)
chain: MQGEDARYLKRKVKGGNIDVHPSEKALIVQYEVEATILGEMGDPMLGERKECQKIIRLKSLNANTDITSLARKVVEECKLIHPSKLSEVEQLLYYLQNRRDSLPGKEKKEKSSKPKDPPPFEGMEIDEVANINDMDEYIELLYEDIPDKVRGSALILQLARNPDNLEELLLNETALGALARVLREDWKQSVELATNIIYIFFCFSSFSHFHGLITHYKIGALCMNIIDHELKRHELWQEELSKKKKAVDEDLENQTLRKDYDKTFKKYQGLVVKQEQLLRVALYLLLNLAEDTRTELKMRNKNIVHMLVKALDRDNFELLILVVSFLKKLSIFMENKNDMVEMDIVEKLVKMIPCEHEDLLNITLRLLLNLSFDTGLRNKMVQVGLLPKLTALLGNENYKQIAMCVLYHISMDDRFKSMFAYTDCIPQLMKMLFECSDERIDLELISFCINLAANKRNVQLICEGNGLKMLMKRALKLKDPLLMKMIRNISQHDGPTKNLFIDYVGDLAAQISSDEEEEFVIECLGTLANLTIPDLDWELVLKEYKLVPFLKDKLKPGAAEDDLVLEVVIMIGTVSMDDSCAALLAKSGIIPALIELLNAQQEDDEFVCQIIYVFYQMVFHQATRDVIIKETQAPAYLIDLMHDKNNEIRKVCDNTLDIIAEYDEEWAKKIQSEKFRWHNSQWLEMVESRQLDESEQYLYGDDRIEPYIHEGDILERPDLFYNSDGLITSEGAISPDFFNDFHLQNGDVVGQHAFPGSLGMDGFGQPLGILGRPATAYGFRPDEPYYYSFGSR

Tests used:
[1] = target: full-length APC–green fluorescent protein (GFP) (mouse, UniProt Q61315 1-2845); assay: MST
Chain of full-length APC–green fluorescent protein (GFP) (Q61315 whole entry): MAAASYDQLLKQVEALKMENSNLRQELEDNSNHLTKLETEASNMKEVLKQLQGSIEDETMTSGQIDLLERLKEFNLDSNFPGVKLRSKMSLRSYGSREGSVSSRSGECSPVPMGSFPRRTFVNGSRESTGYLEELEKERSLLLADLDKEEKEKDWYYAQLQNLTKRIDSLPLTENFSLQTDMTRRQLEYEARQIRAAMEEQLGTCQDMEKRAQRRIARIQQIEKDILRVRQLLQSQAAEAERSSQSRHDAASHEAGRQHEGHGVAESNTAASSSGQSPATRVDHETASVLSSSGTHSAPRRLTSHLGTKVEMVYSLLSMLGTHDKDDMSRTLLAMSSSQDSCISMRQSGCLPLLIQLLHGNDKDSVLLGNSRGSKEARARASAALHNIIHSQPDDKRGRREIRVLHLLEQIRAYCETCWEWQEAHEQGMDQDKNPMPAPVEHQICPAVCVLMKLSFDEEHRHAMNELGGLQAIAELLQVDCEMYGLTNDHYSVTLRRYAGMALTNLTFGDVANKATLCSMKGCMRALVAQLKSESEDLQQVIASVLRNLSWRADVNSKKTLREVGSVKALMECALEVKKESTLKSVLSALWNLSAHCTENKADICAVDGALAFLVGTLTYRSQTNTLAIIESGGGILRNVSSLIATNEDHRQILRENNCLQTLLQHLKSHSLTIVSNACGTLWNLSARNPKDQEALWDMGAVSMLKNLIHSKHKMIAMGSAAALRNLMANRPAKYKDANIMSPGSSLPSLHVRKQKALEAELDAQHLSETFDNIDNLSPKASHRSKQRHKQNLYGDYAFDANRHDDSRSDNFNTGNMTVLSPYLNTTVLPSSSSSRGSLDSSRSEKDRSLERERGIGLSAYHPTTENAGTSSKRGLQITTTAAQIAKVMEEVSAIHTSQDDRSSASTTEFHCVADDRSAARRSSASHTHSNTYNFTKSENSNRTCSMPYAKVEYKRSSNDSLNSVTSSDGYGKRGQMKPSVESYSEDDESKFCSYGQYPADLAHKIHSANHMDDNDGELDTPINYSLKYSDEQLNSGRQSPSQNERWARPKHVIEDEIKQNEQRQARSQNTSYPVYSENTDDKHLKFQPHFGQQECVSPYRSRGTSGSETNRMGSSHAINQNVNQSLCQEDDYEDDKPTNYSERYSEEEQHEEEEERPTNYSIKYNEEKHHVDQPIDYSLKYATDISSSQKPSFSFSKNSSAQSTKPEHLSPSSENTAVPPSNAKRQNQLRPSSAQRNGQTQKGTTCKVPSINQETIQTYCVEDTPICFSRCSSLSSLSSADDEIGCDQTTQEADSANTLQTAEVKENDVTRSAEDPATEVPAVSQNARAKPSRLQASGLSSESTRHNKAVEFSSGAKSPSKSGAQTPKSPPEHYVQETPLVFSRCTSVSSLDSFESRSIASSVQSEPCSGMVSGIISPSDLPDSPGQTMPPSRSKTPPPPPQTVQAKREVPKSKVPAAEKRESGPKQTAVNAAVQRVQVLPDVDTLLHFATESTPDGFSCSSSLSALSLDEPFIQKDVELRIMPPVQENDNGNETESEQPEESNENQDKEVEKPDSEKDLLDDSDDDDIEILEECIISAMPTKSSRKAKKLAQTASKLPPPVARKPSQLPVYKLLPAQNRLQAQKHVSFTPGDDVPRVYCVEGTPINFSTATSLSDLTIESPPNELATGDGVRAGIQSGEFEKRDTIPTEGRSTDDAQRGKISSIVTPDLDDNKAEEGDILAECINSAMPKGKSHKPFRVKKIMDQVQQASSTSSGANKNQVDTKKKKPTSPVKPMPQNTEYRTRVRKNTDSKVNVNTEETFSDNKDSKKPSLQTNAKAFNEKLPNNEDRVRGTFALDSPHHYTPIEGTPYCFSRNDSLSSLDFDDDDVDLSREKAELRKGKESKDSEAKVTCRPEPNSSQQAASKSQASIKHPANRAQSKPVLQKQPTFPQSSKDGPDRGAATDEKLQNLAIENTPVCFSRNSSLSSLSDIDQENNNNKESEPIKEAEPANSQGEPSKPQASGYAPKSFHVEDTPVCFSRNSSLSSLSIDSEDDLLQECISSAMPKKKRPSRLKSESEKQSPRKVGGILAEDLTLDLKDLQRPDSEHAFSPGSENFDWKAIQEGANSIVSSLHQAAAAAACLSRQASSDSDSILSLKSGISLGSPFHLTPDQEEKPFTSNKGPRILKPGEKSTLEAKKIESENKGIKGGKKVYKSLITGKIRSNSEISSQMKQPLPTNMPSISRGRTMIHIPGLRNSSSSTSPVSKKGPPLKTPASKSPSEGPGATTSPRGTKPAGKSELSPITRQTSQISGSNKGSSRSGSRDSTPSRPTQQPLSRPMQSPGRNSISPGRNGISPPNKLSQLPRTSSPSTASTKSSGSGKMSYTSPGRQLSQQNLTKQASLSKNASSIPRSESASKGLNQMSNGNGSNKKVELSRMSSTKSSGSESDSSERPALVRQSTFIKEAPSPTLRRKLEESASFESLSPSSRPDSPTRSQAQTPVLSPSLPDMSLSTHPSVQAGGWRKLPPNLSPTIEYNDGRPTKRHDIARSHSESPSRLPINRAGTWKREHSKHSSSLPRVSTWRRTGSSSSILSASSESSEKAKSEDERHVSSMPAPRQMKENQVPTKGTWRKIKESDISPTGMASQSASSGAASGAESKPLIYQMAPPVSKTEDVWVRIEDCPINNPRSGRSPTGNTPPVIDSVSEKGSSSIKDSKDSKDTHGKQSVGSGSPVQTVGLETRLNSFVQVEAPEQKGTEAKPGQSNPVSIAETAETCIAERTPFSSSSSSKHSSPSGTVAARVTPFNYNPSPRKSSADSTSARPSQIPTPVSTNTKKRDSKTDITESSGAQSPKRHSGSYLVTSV

[2] = target: the molecule itself; assay: single-molecule photobleaching step analysis
[3] = target: the molecule itself; assay: SEC-MALS
[4] = target: B1; assay: SEC-MALS

Binder: B1
binding result [1]: binds

B2: homodimeric SNAP-KIF3A labeled with Alexa647 or TMR (natural protein, mouse, UniProt P28741 1-701, looked up)
chain: MPINKSEKPESCDNVKVVVRCRPLNEREKSMCYRQAVSVDEMRGTITVHKTDSSNEPPKTFTFDTVFGPESKQLDVYNLTARPIIDSVLEGYNGTIFAYGQTGTGKTFTMEGVRAVPGLRGVIPNSFAHIFGHIAKAEGDTRFLVRVSYLEIYNEEVRDLLGKDQTQRLEVKERPDVGVYIKDLSAYVVNNADDMDRIMTLGHKNRSVGATNMNEHSSRSHAIFTITIECSEKGVDGNMHVRMGKLHLVDLAGSERQAKTGATGQRLKEATKINLSLSTLGNVISALVDGKSTHVPYRNSKLTRLLQDSLGGNSKTMMCANIGPADYNYDETISTLRYANRAKNIKNKARINEDPKDALLRQFQKEIEELKKKLEEGEEVSGSDISGSEEDDEEGELGEDGEKKKKRRDQAGKKKVSPDKMVEMQAKIDEERKALETKLDMEEEERNKARAELERREKDLLKAQQEHQSLLEKLSALEKKVIVGGVDLLAKAEEQEKLLEESNMELEERRRRAEQLRKELEEKEQERLDIEEKYTSLQEEAQGKTKKLKKVWTMLMAAKSEMADLQQEHQREIEGLLENIRQLSRELRLQMLIIDNFIPQDYQEMIENYVHWNEDIGEWQLKCVAYTGNNMRKQTPVPDKKERDPFEVDLSHVYLAYTEESLRQSLMKLERPRTSKGKARPKMGRRKRSAKPETVIDSLLQ
modifications: Alexa647 or TMR dye on the SNAP tag
stoichiometry N [2]: 2

binding result [4]: binds
B3: KIF3A (homodimer, separately purified) (natural protein, mouse, UniProt P28741 1-701, looked up)
chain: MPINKSEKPESCDNVKVVVRCRPLNEREKSMCYRQAVSVDEMRGTITVHKTDSSNEPPKTFTFDTVFGPESKQLDVYNLTARPIIDSVLEGYNGTIFAYGQTGTGKTFTMEGVRAVPGLRGVIPNSFAHIFGHIAKAEGDTRFLVRVSYLEIYNEEVRDLLGKDQTQRLEVKERPDVGVYIKDLSAYVVNNADDMDRIMTLGHKNRSVGATNMNEHSSRSHAIFTITIECSEKGVDGNMHVRMGKLHLVDLAGSERQAKTGATGQRLKEATKINLSLSTLGNVISALVDGKSTHVPYRNSKLTRLLQDSLGGNSKTMMCANIGPADYNYDETISTLRYANRAKNIKNKARINEDPKDALLRQFQKEIEELKKKLEEGEEVSGSDISGSEEDDEEGELGEDGEKKKKRRDQAGKKKVSPDKMVEMQAKIDEERKALETKLDMEEEERNKARAELERREKDLLKAQQEHQSLLEKLSALEKKVIVGGVDLLAKAEEQEKLLEESNMELEERRRRAEQLRKELEEKEQERLDIEEKYTSLQEEAQGKTKKLKKVWTMLMAAKSEMADLQQEHQREIEGLLENIRQLSRELRLQMLIIDNFIPQDYQEMIENYVHWNEDIGEWQLKCVAYTGNNMRKQTPVPDKKERDPFEVDLSHVYLAYTEESLRQSLMKLERPRTSKGKARPKMGRRKRSAKPETVIDSLLQ
stoichiometry N [3]: 2

Reference: publication PMC7069705 (Science Advances, 2019)
